# Source: US20220073604A1 (ARGENX BVBA, published 2022)
# Where a chain is given by its changes, count along the chain named.
# B1: 129F2 (germlined variant of 68F2), full-length IgG1 (antibody, V domains shown)
# VH: EVQLQESGPGLVKPSQTLSLTCTVSGGSITSRYYAWSWIRQPPGKGLEWIGVIDYDGDTYYSPSLKSRVTISWDTSKNQFSLKLSSVTAEDTAVYYCARDPDVVTGFHYDYWGQGTMVTVSS
# VL: QSALTQPPSVSGTPGQTVTISCAGANNDIGTYAYVSWYQQLPGTAPKLMIYKVTTRASGIPDRFSGSKSGNTASLTISGLQSEDEADYYCASYRNFNNAVFGGGTKLTVL
# B2: 126A3 (germlined variant of 68F2), full-length IgG1 (antibody, V domains shown)
# VH: B1 VH with S31T, W73V, E90A
# VL: B1 VL with T13A, M49L, D62S, S78T, G103R
# B3: 127E2 (germlined variant of 68F2), full-length IgG1 (antibody, V domains shown)
# VH: B1 VH with S31T, W73V, K83Q, M117Q
# VL: B1 VL with T13S, L41P, M49L, I60V, S82A, K106H
# B4: 127F1 (germlined variant of 68F2), full-length IgG1 (antibody, V domains shown)
# VH: B1 VH with S31T, T70S, E90A, M117L
# VL: B1 VL with A3V, T17R, M49L, I60V, T72S, S78T, K106H
# B5: 129E11 (germlined variant of 68F2), full-length IgG1 (antibody, V domains shown)
# VH: B1 VH with I50M, W73V, M117L
# VL: B1 VL with S9L, T13S, M49L, I60V, G103T
# B6: 128G3 (germlined variant of 68F2), full-length IgG1 (antibody, V domains shown)
# VH: B1 VH with S31T, V69T, W73V, A89P
# VL: B1 VL with T13A, M49L, I60V, T76A, S82A, K106H
# B7: 55E10 (Fab, V domains shown)
# VH: QVQLVESGGGLVQPGGSLRLSCAASGFTFSNYYMTWVRQAPGKGLEWVSSIYSFSGDTAYADSVKGRFTISRDNAKNTLYLQMNSLKSEDTAVYYCTRNLGGVVVTTNGYDYWGQGTQVTVSS
# VL: DIQMTQSPSSLPTSLGDSVTITCQASQSISDELSWYQQKPGQTPKLLIYGASKLQTGVPSRFSGSGSGTSFTLTISGLEAEDLATYYCLQGYSWPFMFGQGTKVELK
# notes: Periplasmic Fab; Suffix 'g1' not explained; also called 55E10g1
# B8: 55C11 (Fab, V domains shown)
# VH: B7 VH
# VL: B7 VL with M4L, P12S, T13A, S93R
# notes: Periplasmic Fab; Suffix 'f' not explained; also called 55C11f
# B9: 48H1 (Fab, V domains shown)
# VH: B7 VH
# VL: B7 VL with I2V, Q3V
# notes: Periplasmic Fab; Suffix 'g2, R4' not explained; also called 48H1g2, R4
# B10: 55A11 (Fab, V domains shown)
# VH: B7 VH
# VL: B7 VL with K53R, S65R
# notes: Periplasmic Fab; Suffix 'd' of the label not explained; also called 55A11d
# B11: Fab 28C6 (Fab, V domains shown)
# VH: B7 VH with S85K, N99D, T107A
# VL: DIVMTQTPSSLSASLGDRVTITCQASQSISTELSWYQQKPGQTPKLLIYGASRLQTGVPARFSGSGSGTSFTLTISGLEAEDLATYYCLQDYSWPYSFGSGTRL
# notes: Fab
# B12: Fab 18F8 (Fab, V domains shown)
# VH: EVQLVESGGGLVQPGGSLRLSCAASGFTFSRNAMSWVRQAPGKGLEWVSAINSGGGSTSYADSVKGRFTISRDNAKNTLYLQMNSLKPEDTAVYYCAKEGYTGWKDPMYDYWGQGTQVTVSS
# VL: QSALTQPSALSVTLGQTAKITCQGGSLGSRYAHWYQQKPGQAPVLVIYDDDSRPSGIPERFSGSSSGGRATLTISGAQAEDEGDYYCQSADTSEHIVFGGGTHLTVLG
# notes: Fab
# Target: human IL-6 (as added in the B9 and 7TD1 bioassays) (human, UniProt P05231 30-212)
# Assay: cell-based or functional assay
Binder,"IC50, 7TD1 proliferation assay, exp 22.06","IC50, 7TD1 proliferation assay, exp 29.06","Rel. Potency, 7TD1, exp 29.06","IC50, 7TD1 proliferation assay, exp 7.07","Rel. Potency, 7TD1, exp 7.07","IC50, 7TD1 proliferation assay, exp 22.06 (batch 24.06)","IC50, 7TD1 proliferation assay, exp 29.06 (batch 17.06)","IC50, 7TD1 proliferation assay, exp 29.06 (batch 24.06)","Rel. Potency, 7TD1, exp 29.06 (batch 24.06)","IC50, 7TD1 proliferation assay, exp 22.06 (batch 17.06)"
B1,0.000703 nM,0.000517 nM,1.08,–,–,–,–,–,–,–
B2,–,0.000564 nM,0.99,0.00063 nM,2.16,–,–,–,–,–
B3,–,–,–,–,–,0.00138 nM,0.00151 nM,0.00125 nM,0.45,–
B4,–,0.000637 nM,0.88,0.00149 nM,0.91,–,–,–,–,–
B5,–,0.000857 nM,0.65,0.00155 nM,0.88,–,–,–,–,–
B6,–,–,–,–,–,–,0.00107 nM,0.00146 nM,0.38,0.00134 nM

# Target: T1, bacterially produced human IL-6 (human, UniProt P05231 30-212)
# T1 construct: Immobilised on the Biacore chip; also called BACT IL-6 (2-1); bactIL-6
# Assay: SPR (Biacore), periplasmic Fab
Ka,Kd,fold improvement of KD over 28A6 (parental),fold improvement of ka over 28A6 (parental),fold improvement of kd over 28A6 (parental),koff,kon,Binder
3.18e+09 M⁻¹,0.315 nM,2.38 fold,0.81 fold,2.92 fold,6.09e-05 s⁻¹,193000 M⁻¹ s⁻¹,B7
3.29e+09 M⁻¹,0.304 nM,2.46 fold,0.96 fold,2.56 fold,6.94e-05 s⁻¹,228000 M⁻¹ s⁻¹,B8
2.93e+09 M⁻¹,0.341 nM,2.2 fold,0.87 fold,2.53 fold,7.04e-05 s⁻¹,206000 M⁻¹ s⁻¹,B9
2.78e+09 M⁻¹,0.359 nM,2.09 fold,0.79 fold,2.63 fold,6.76e-05 s⁻¹,188000 M⁻¹ s⁻¹,B10

# Target: T2, eukaryotically produced human IL-6 (human, UniProt P05231 30-212)
# T2 construct: Immobilised on the Biacore chip; also called Euk IL-6; EUK IL-6 (3-1)
# Assay: SPR (Biacore), periplasmic Fab
Ka,Kd,fold improvement of KD over 28A6 (parental),fold improvement of ka over 28A6 (parental),fold improvement of kd over 28A6 (parental),koff,kon,Binder
2.62e+09 M⁻¹,0.382 nM,1.52 fold,0.8 fold,1.88 fold,5.59e-05 s⁻¹,146000 M⁻¹ s⁻¹,B7
3.1e+09 M⁻¹,0.323 nM,1.8 fold,1.1 fold,1.62 fold,6.47e-05 s⁻¹,201000 M⁻¹ s⁻¹,B8
1.56e+09 M⁻¹,0.64 nM,0.91 fold,0.58 fold,1.54 fold,6.8e-05 s⁻¹,106000 M⁻¹ s⁻¹,B9
1.59e+09 M⁻¹,0.631 nM,0.92 fold,0.55 fold,1.65 fold,6.36e-05 s⁻¹,101000 M⁻¹ s⁻¹,B10

# Target: T3, cynomolgus monkey IL-6 (cynomolgus monkey, UniProt P79341 28-212, limits assumed)
# T3 construct: Immobilised on the Biacore chip
# Assay: SPR (Biacore), periplasmic Fab
Ka,Kd,fold improvement of KD over 28A6 (parental),fold improvement of ka over 28A6 (parental),fold improvement of kd over 28A6 (parental),koff,kon,Binder
2.1e+09 M⁻¹,0.476 nM,11 fold,1.13 fold,9.78 fold,6.88e-05 s⁻¹,145000 M⁻¹ s⁻¹,B7
3.2e+09 M⁻¹,0.313 nM,16.8 fold,2.23 fold,7.56 fold,8.9e-05 s⁻¹,285000 M⁻¹ s⁻¹,B8
1.18e+09 M⁻¹,0.845 nM,6.21 fold,0.88 fold,7.11 fold,9.46e-05 s⁻¹,112000 M⁻¹ s⁻¹,B9
1.77e+09 M⁻¹,0.566 nM,9.28 fold,1.13 fold,8.24 fold,8.17e-05 s⁻¹,144000 M⁻¹ s⁻¹,B10

# Target: T4, bacterially produced human IL-6 (human, UniProt P05231 30-212)
# T4 construct: also called bactIL-6; prokaryotic IL-6
# Assay: SPR; purified Fab over biotinylated IL-6 on streptavidin chip
# Experimental: From the washing phase the off-rate (kd) was determined, while from the injection phase the on-rate (ka) was calculated using the concentration and off-rate as parameters.
Ka,Kd,koff,kon,Binder
4.04e+07 M⁻¹,24.8 nM,0.0025 s⁻¹,101000 M⁻¹ s⁻¹,B11
6.18e+07 M⁻¹,16.2 nM,0.000784 s⁻¹,48400 M⁻¹ s⁻¹,B12
